# Assay results published in patent publication US20050158302.
# Target: GST-NFκBp65 C418 (GST-trans-activation domain only of NFκBp65) [GST: P08515]
# Sequence (P08515 whole entry, looked up, the tested form may be a part): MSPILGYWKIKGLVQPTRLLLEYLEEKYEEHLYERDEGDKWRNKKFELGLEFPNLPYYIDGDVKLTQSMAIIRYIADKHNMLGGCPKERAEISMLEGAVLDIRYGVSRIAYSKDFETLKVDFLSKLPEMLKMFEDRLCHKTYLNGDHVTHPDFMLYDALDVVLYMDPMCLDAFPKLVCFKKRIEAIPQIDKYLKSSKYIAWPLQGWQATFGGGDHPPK
protein,measurement,value
Cdk8 (53 kD cytosolic protein kinase of Molt-4 extracts) (protein) MDYDFKVKLSSERERVEDLFEYEGCKVGRGTYGHVYKAKRKDGKDDKDYALKQIEGTGISMSACREIALLRELKHPNVISLQKVFLSHADRKVWLLFDYAEHDLWHIIKFHRASKANKKPVQLPRGMVKSLLYQILDGIHYLHANWVLHRDLKPANILVMGEGPERGRVKIADMGFARLFNSPLKPLADLDPVVVTFWYRAPELLLGARHYTKAIDIWAIGCIFAELLTSEPIFHCRQEDIKTSNPYHHDQLDRIFNVMGFPADKDWEDIKKMPEHSTLMKDFRRNTYTNCSLIKYMEKHKVKPDSKAFHLLQKLLTMDPIKRITSEQAMQDPYFLEDPLPTSDVFAGCQIPYPKREFLTEEEPDDKGDKKNQQQQQGNNHTNGTGHPGNQDSSHTQGPPLKKVRVVPPTTTSGGLIMTSDYQRSNPHAAYPNPGPSTSQPQSSMGYSATSQQPPQYSHQTHRY,CTD phosphorylation in in vitro kinase reaction (GST-CTD substrate),kinase activity was only mildly detected in GST-NFκBp65 C418/cytosolic protein complexes
